Patent publication US20240270846A1 (published 2024)

Biological target: T1, CD3 epsilon homodimer protein (UniProt P07766 23-126)
T1 construct: also called CD3 (CD3 epsilon)
Assay: SPR (Biacore T200), CD3e homodimer on CM4 chip, antibody as analyte; KD ratio vs unaltered GLS3000;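 further: CD3 epsilon homodimer amine-coupled to the sensor surface, antibodies injected as analyte at 25 °C with HBS-EP+ running buffer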

T1 sequence (P07766 23-126): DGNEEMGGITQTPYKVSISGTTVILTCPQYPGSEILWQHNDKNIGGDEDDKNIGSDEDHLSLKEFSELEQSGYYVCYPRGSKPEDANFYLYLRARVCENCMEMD

| Binder | KD ratio to GLS3000 [ratio] |
| --- | --- |
| CE115HA000/GLS3000 G89F one-arm antibody (antibody, human IgG1, kappa, L234A L235A, N297A, name in Kabat numbering, one-arm IgG1) heavy: QVQLVESGGGVVQPGRSLRLSCAASGFTFSNAWMHWVRQAPGKGLEWVAQIKAKSNNYATYYAESVKGRFTISRDDSKNSLYLQMNSLKTEDTAVYYCRYVHYGAYYGVDAWGQGTTVTVSSASTKGPSVFPLAPSSKSTSGGTAALGCLVKDYFPEPVTVSWNSGALTSGVHTFPAVLQSSGLYSLSSVVTVPSSSLGTQTYICNVNHKPSNTKVDKKVEPKSCDKTHTCPPCPAPEAAGGPSVFLFPPKPKDTLMISRTPEVTCVVVDVSHEDPEVKFNWYVDGVEVHNAKTKPREEQYASTYRVVSVLTVLHQDWLNGKEYKCKVSNKALPAPIEKTISKAKGQPREPQVYTLPPSRCELTKNQVSLSCAVKGFYPSDIAVEWESNGQPENNYKTTPPVLDSDGSFFLVSKLTVDKSRWQQGNVFSCSVMHEALHNHYTQKSLSLSPDYKDDDDK EPKSSDKTHTCPPCPAPELLGGPSVFLFPPKPKDTLMISRTPEVTCVVVDVSHEDPEVKFNWYVDGVEVHNAKTKPREEQYNSTYRVVSVLTVLHQDWLNGKEYKCKVSNKALPAPIEKTISKAKGQPREPQVCTLPPSRDELTKNQVSLWCLVKGFYPSDIAVEWESNGQPENNYKTTPPVLDSDGSFFLYSKLTVDKSRWQQGNVFSCSVMHEALHNRYTQKSLSLSP light: DIVMTQSPLSLPVTPGEPASISCRSSQSLVHSNRNTYLHWYQQKPGQAPRLLIYKVSNRFSGVPDRFSGSGSGTDFTLKISRVEAEDVGVYYCFQGTQVPYTFGQGTKLEIKRTVAAPSVFIFPPSDEQLKSGTASVVCLLNNFYPREAKVQWKVDNALQSGNSQESVTEQDSKDSTYSLSSTLTLSKADYEKHKVYACEVTHQGLSSPVTKSFNRGEC | 3.34 |
| CE115HA000/GLS3000 G89L one-arm antibody (antibody, human IgG1, kappa, L234A L235A, N297A, name in Kabat numbering, one-arm IgG1) heavy: QVQLVESGGGVVQPGRSLRLSCAASGFTFSNAWMHWVRQAPGKGLEWVAQIKAKSNNYATYYAESVKGRFTISRDDSKNSLYLQMNSLKTEDTAVYYCRYVHYGAYYGVDAWGQGTTVTVSSASTKGPSVFPLAPSSKSTSGGTAALGCLVKDYFPEPVTVSWNSGALTSGVHTFPAVLQSSGLYSLSSVVTVPSSSLGTQTYICNVNHKPSNTKVDKKVEPKSCDKTHTCPPCPAPEAAGGPSVFLFPPKPKDTLMISRTPEVTCVVVDVSHEDPEVKFNWYVDGVEVHNAKTKPREEQYASTYRVVSVLTVLHQDWLNGKEYKCKVSNKALPAPIEKTISKAKGQPREPQVYTLPPSRCELTKNQVSLSCAVKGFYPSDIAVEWESNGQPENNYKTTPPVLDSDGSFFLVSKLTVDKSRWQQGNVFSCSVMHEALHNHYTQKSLSLSPDYKDDDDK EPKSSDKTHTCPPCPAPELLGGPSVFLFPPKPKDTLMISRTPEVTCVVVDVSHEDPEVKFNWYVDGVEVHNAKTKPREEQYNSTYRVVSVLTVLHQDWLNGKEYKCKVSNKALPAPIEKTISKAKGQPREPQVCTLPPSRDELTKNQVSLWCLVKGFYPSDIAVEWESNGQPENNYKTTPPVLDSDGSFFLYSKLTVDKSRWQQGNVFSCSVMHEALHNRYTQKSLSLSP light: DIVMTQSPLSLPVTPGEPASISCRSSQSLVHSNRNTYLHWYQQKPGQAPRLLIYKVSNRFSGVPDRFSGSGSGTDFTLKISRVEAEDVGVYYCLQGTQVPYTFGQGTKLEIKRTVAAPSVFIFPPSDEQLKSGTASVVCLLNNFYPREAKVQWKVDNALQSGNSQESVTEQDSKDSTYSLSSTLTLSKADYEKHKVYACEVTHQGLSSPVTKSFNRGEC | 2.38 |
| CE115HA000/GLS3000 G89H one-arm antibody (antibody, human IgG1, kappa, L234A L235A, N297A, name in Kabat numbering, one-arm IgG1) heavy: QVQLVESGGGVVQPGRSLRLSCAASGFTFSNAWMHWVRQAPGKGLEWVAQIKAKSNNYATYYAESVKGRFTISRDDSKNSLYLQMNSLKTEDTAVYYCRYVHYGAYYGVDAWGQGTTVTVSSASTKGPSVFPLAPSSKSTSGGTAALGCLVKDYFPEPVTVSWNSGALTSGVHTFPAVLQSSGLYSLSSVVTVPSSSLGTQTYICNVNHKPSNTKVDKKVEPKSCDKTHTCPPCPAPEAAGGPSVFLFPPKPKDTLMISRTPEVTCVVVDVSHEDPEVKFNWYVDGVEVHNAKTKPREEQYASTYRVVSVLTVLHQDWLNGKEYKCKVSNKALPAPIEKTISKAKGQPREPQVYTLPPSRCELTKNQVSLSCAVKGFYPSDIAVEWESNGQPENNYKTTPPVLDSDGSFFLVSKLTVDKSRWQQGNVFSCSVMHEALHNHYTQKSLSLSPDYKDDDDK EPKSSDKTHTCPPCPAPELLGGPSVFLFPPKPKDTLMISRTPEVTCVVVDVSHEDPEVKFNWYVDGVEVHNAKTKPREEQYNSTYRVVSVLTVLHQDWLNGKEYKCKVSNKALPAPIEKTISKAKGQPREPQVCTLPPSRDELTKNQVSLWCLVKGFYPSDIAVEWESNGQPENNYKTTPPVLDSDGSFFLYSKLTVDKSRWQQGNVFSCSVMHEALHNRYTQKSLSLSP light: DIVMTQSPLSLPVTPGEPASISCRSSQSLVHSNRNTYLHWYQQKPGQAPRLLIYKVSNRFSGVPDRFSGSGSGTDFTLKISRVEAEDVGVYYCHQGTQVPYTFGQGTKLEIKRTVAAPSVFIFPPSDEQLKSGTASVVCLLNNFYPREAKVQWKVDNALQSGNSQESVTEQDSKDSTYSLSSTLTLSKADYEKHKVYACEVTHQGLSSPVTKSFNRGEC | 1.44 |
| CE115HA000/GLS3000 G89M one-arm antibody (antibody, human IgG1, kappa, L234A L235A, N297A, name in Kabat numbering, one-arm IgG1) heavy: QVQLVESGGGVVQPGRSLRLSCAASGFTFSNAWMHWVRQAPGKGLEWVAQIKAKSNNYATYYAESVKGRFTISRDDSKNSLYLQMNSLKTEDTAVYYCRYVHYGAYYGVDAWGQGTTVTVSSASTKGPSVFPLAPSSKSTSGGTAALGCLVKDYFPEPVTVSWNSGALTSGVHTFPAVLQSSGLYSLSSVVTVPSSSLGTQTYICNVNHKPSNTKVDKKVEPKSCDKTHTCPPCPAPEAAGGPSVFLFPPKPKDTLMISRTPEVTCVVVDVSHEDPEVKFNWYVDGVEVHNAKTKPREEQYASTYRVVSVLTVLHQDWLNGKEYKCKVSNKALPAPIEKTISKAKGQPREPQVYTLPPSRCELTKNQVSLSCAVKGFYPSDIAVEWESNGQPENNYKTTPPVLDSDGSFFLVSKLTVDKSRWQQGNVFSCSVMHEALHNHYTQKSLSLSPDYKDDDDK EPKSSDKTHTCPPCPAPELLGGPSVFLFPPKPKDTLMISRTPEVTCVVVDVSHEDPEVKFNWYVDGVEVHNAKTKPREEQYNSTYRVVSVLTVLHQDWLNGKEYKCKVSNKALPAPIEKTISKAKGQPREPQVCTLPPSRDELTKNQVSLWCLVKGFYPSDIAVEWESNGQPENNYKTTPPVLDSDGSFFLYSKLTVDKSRWQQGNVFSCSVMHEALHNRYTQKSLSLSP light: DIVMTQSPLSLPVTPGEPASISCRSSQSLVHSNRNTYLHWYQQKPGQAPRLLIYKVSNRFSGVPDRFSGSGSGTDFTLKISRVEAEDVGVYYCMQGTQVPYTFGQGTKLEIKRTVAAPSVFIFPPSDEQLKSGTASVVCLLNNFYPREAKVQWKVDNALQSGNSQESVTEQDSKDSTYSLSSTLTLSKADYEKHKVYACEVTHQGLSSPVTKSFNRGEC | 1.96 |
| CE115HA000/GLS3000 G89K one-arm antibody (antibody, human IgG1, kappa, L234A L235A, N297A, name in Kabat numbering, one-arm IgG1) heavy: QVQLVESGGGVVQPGRSLRLSCAASGFTFSNAWMHWVRQAPGKGLEWVAQIKAKSNNYATYYAESVKGRFTISRDDSKNSLYLQMNSLKTEDTAVYYCRYVHYGAYYGVDAWGQGTTVTVSSASTKGPSVFPLAPSSKSTSGGTAALGCLVKDYFPEPVTVSWNSGALTSGVHTFPAVLQSSGLYSLSSVVTVPSSSLGTQTYICNVNHKPSNTKVDKKVEPKSCDKTHTCPPCPAPEAAGGPSVFLFPPKPKDTLMISRTPEVTCVVVDVSHEDPEVKFNWYVDGVEVHNAKTKPREEQYASTYRVVSVLTVLHQDWLNGKEYKCKVSNKALPAPIEKTISKAKGQPREPQVYTLPPSRCELTKNQVSLSCAVKGFYPSDIAVEWESNGQPENNYKTTPPVLDSDGSFFLVSKLTVDKSRWQQGNVFSCSVMHEALHNHYTQKSLSLSPDYKDDDDK EPKSSDKTHTCPPCPAPELLGGPSVFLFPPKPKDTLMISRTPEVTCVVVDVSHEDPEVKFNWYVDGVEVHNAKTKPREEQYNSTYRVVSVLTVLHQDWLNGKEYKCKVSNKALPAPIEKTISKAKGQPREPQVCTLPPSRDELTKNQVSLWCLVKGFYPSDIAVEWESNGQPENNYKTTPPVLDSDGSFFLYSKLTVDKSRWQQGNVFSCSVMHEALHNRYTQKSLSLSP light: DIVMTQSPLSLPVTPGEPASISCRSSQSLVHSNRNTYLHWYQQKPGQAPRLLIYKVSNRFSGVPDRFSGSGSGTDFTLKISRVEAEDVGVYYCKQGTQVPYTFGQGTKLEIKRTVAAPSVFIFPPSDEQLKSGTASVVCLLNNFYPREAKVQWKVDNALQSGNSQESVTEQDSKDSTYSLSSTLTLSKADYEKHKVYACEVTHQGLSSPVTKSFNRGEC | 1.8 |
| CE115HA000/GLS3000 G89I one-arm antibody (antibody, human IgG1, kappa, L234A L235A, N297A, name in Kabat numbering, one-arm IgG1) heavy: QVQLVESGGGVVQPGRSLRLSCAASGFTFSNAWMHWVRQAPGKGLEWVAQIKAKSNNYATYYAESVKGRFTISRDDSKNSLYLQMNSLKTEDTAVYYCRYVHYGAYYGVDAWGQGTTVTVSSASTKGPSVFPLAPSSKSTSGGTAALGCLVKDYFPEPVTVSWNSGALTSGVHTFPAVLQSSGLYSLSSVVTVPSSSLGTQTYICNVNHKPSNTKVDKKVEPKSCDKTHTCPPCPAPEAAGGPSVFLFPPKPKDTLMISRTPEVTCVVVDVSHEDPEVKFNWYVDGVEVHNAKTKPREEQYASTYRVVSVLTVLHQDWLNGKEYKCKVSNKALPAPIEKTISKAKGQPREPQVYTLPPSRCELTKNQVSLSCAVKGFYPSDIAVEWESNGQPENNYKTTPPVLDSDGSFFLVSKLTVDKSRWQQGNVFSCSVMHEALHNHYTQKSLSLSPDYKDDDDK EPKSSDKTHTCPPCPAPELLGGPSVFLFPPKPKDTLMISRTPEVTCVVVDVSHEDPEVKFNWYVDGVEVHNAKTKPREEQYNSTYRVVSVLTVLHQDWLNGKEYKCKVSNKALPAPIEKTISKAKGQPREPQVCTLPPSRDELTKNQVSLWCLVKGFYPSDIAVEWESNGQPENNYKTTPPVLDSDGSFFLYSKLTVDKSRWQQGNVFSCSVMHEALHNRYTQKSLSLSP light: DIVMTQSPLSLPVTPGEPASISCRSSQSLVHSNRNTYLHWYQQKPGQAPRLLIYKVSNRFSGVPDRFSGSGSGTDFTLKISRVEAEDVGVYYCIQGTQVPYTFGQGTKLEIKRTVAAPSVFIFPPSDEQLKSGTASVVCLLNNFYPREAKVQWKVDNALQSGNSQESVTEQDSKDSTYSLSSTLTLSKADYEKHKVYACEVTHQGLSSPVTKSFNRGEC | 1.11 |
